These results are taken from US20230265124A1 (ARIZONA BOARD OF REGENTS ON BEHALF OF THE UNIVERSITY OF …, published 2023).

Bridges are numbered along the chain shown (N, C = ends). Where no end group is shown, it is not given here. [ ]: non-standard residue; d: D form. glucose = glucose (covalently linked to the residue side chain); Dap = NC[C@H](N)C(=O)O; Aib = CC(C)(N)C(=O)O

B1: 2LS118-6 (peptide)
peptide: DYIQN[Dap]PLGS(glucose)S(glucose)-NH2
modifications: lactam 1-6
notes: Synthetic cyclic glycopeptide: Asp-Tyr-Ile-Gln-Asn-Dap-Pro-Leu-Gly-(SerGlc)2-CONH2, cyclized AA1-AA6
B2: 2LS118-5 (peptide)
peptide: DYIQN[Dap]PLGS(glucose)-NH2
modifications: lactam 1-6
notes: Synthetic cyclic glycopeptide: Asp-Tyr-Ile-Gln-Asn-Dap-Pro-Leu-Gly-SerGlc-CONH2, cyclized AA1-AA6
B3: 2LS118-3 (peptide)
peptide: [Dap]YIQNDPLG-NH2
modifications: lactam 1-6; N-terminus assumed
SMILES: CC[C@H](C)[C@@H]1NC(=O)[C@H](Cc2ccc(O)cc2)NC(=O)[C@@H](N)CNC(=O)C[C@@H](C(=O)N2CCC[C@H]2C(=O)N[C@@H](CC(C)C)C(=O)NCC(N)=O)NC(=O)[C@H](CC(N)=O)NC(=O)[C@H](CCC(N)=O)NC1=O
B4: 2LS118-4 (peptide)
peptide: DYIQN[Dap]PLS(glucose)-NH2
modifications: lactam 1-6
notes: Synthetic cyclic glycopeptide: Asp-Tyr-Ile-Gln-Asn-Dap-Pro-Leu-SerGlc-CONH2, cyclized AA1-AA6; also called compound 2LS118-4
B5: 2LS118-1 (peptide)
peptide: DYIQN[Dap]PLG-NH2
modifications: lactam 1-6; N-terminus assumed
SMILES: CC[C@H](C)[C@@H]1NC(=O)[C@H](Cc2ccc(O)cc2)NC(=O)[C@@H](N)CC(=O)NC[C@@H](C(=O)N2CCC[C@H]2C(=O)N[C@@H](CC(C)C)C(=O)NCC(N)=O)NC(=O)[C@H](CC(N)=O)NC(=O)[C@H](CCC(N)=O)NC1=O
notes: Synthetic cyclic oxytocin analogue: Asp-Tyr-Ile-Gln-Asn-Dap-Pro-Leu-Gly-CONH2, cyclized AA1-AA6; also called compound 2LS118-1
B6: SSoxy4 (peptide)
peptide: EYIQN[Dap]PLS(glucose)-NH2
modifications: lactam 1-6
notes: Synthetic cyclic glycopeptide: Glu-Tyr-Ile-Gln-Asn-Dap-Pro-Leu-SerGlc-CONH2, cyclized AA1-AA6
B7: 2LS118-2 (peptide)
peptide: EYIQN[Dap]PLG-NH2
modifications: lactam 1-6; N-terminus assumed
SMILES: CC[C@H](C)[C@@H]1NC(=O)[C@H](Cc2ccc(O)cc2)NC(=O)[C@@H](N)CCC(=O)NC[C@@H](C(=O)N2CCC[C@H]2C(=O)N[C@@H](CC(C)C)C(=O)NCC(N)=O)NC(=O)[C@H](CC(N)=O)NC(=O)[C@H](CCC(N)=O)NC1=O
notes: Synthetic cyclic oxytocin analogue: Glu-Tyr-Ile-Gln-Asn-Dap-Pro-Leu-Gly-CONH2, cyclized AA1-AA6
B8: SSoxy2 (peptide)
peptide: DYIQN[Dap]PLGS(lactose)-NH2
modifications: lactam 1-6
notes: Synthetic cyclic glycopeptide: Asp-Tyr-Ile-Gln-Asn-Dap-Pro-Leu-Gly-SerLact-CONH2, cyclized AA1-AA6
B9: SSoxy1 (peptide)
peptide: DYIQN[Dap]PLS(lactose)-NH2
modifications: lactam 1-6
notes: Synthetic cyclic glycopeptide: Asp-Tyr-Ile-Gln-Asn-Dap-Pro-Leu-SerLact-CONH2, cyclized AA1-AA6
B10: SSoxy6 (peptide)
peptide: EYIQN[Dap]P[Aib]GS(glucose)-NH2
modifications: lactam 1-6
notes: Synthetic cyclic glycopeptide: Glu-Tyr-Ile-Gln-Asn-Dap-Pro-Aib-Gly-SerGlc-CONH2, cyclized AA1-AA6
B11: SSoxy3 (peptide)
peptide: DYIQN[Dap]P[Aib]S(glucose)-NH2
modifications: lactam 1-6
notes: Synthetic cyclic glycopeptide: Asp-Tyr-Ile-Gln-Asn-Dap-Pro-Aib-SerGlc-CONH2, cyclized AA1-AA6
B12: SSoxy5 (peptide)
peptide: EYIQN[Dap]P[Aib]S(glucose)-NH2
modifications: lactam 1-6
notes: Synthetic cyclic glycopeptide: Glu-Tyr-Ile-Gln-Asn-Dap-Pro-Aib-SerGlc-CONH2, cyclized AA1-AA6

The target in the test is T1, human Mu Opioid Receptor (MOR) (human, UniProt P35372 1-400).
T1 construct: whole, on cells; also called MOR-CHO(PE)
T1 sequence (P35372 whole entry): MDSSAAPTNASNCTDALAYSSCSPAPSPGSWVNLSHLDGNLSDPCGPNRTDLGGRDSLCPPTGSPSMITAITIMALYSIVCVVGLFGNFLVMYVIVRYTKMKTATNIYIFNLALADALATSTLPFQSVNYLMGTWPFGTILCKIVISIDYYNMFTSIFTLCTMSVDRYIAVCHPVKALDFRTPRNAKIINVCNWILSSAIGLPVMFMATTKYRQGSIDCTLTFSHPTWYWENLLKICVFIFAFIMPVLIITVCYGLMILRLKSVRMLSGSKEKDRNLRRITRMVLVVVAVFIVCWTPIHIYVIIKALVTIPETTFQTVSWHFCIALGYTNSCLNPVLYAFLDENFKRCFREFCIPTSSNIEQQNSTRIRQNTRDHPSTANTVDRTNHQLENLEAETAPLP
Put plainly: competition binding against [3H]diprenorphine on MOR-CHO(PE) membranes. As for the experimental part:
Competition Binding at MOR-CHO(PE) Presence of [3H]Diprenorphine: The compounds were also tested for off-target binding to the human Mu Opioid Receptor (MOR), also expressed in CHO cells. Briefly, the experiment involved: Protein: MOR-CHO(PE) Passage: 16; previously frozen cell pellets used and prepared. Protein 15 ug/well used. Serial dilution of compounds and Naloxone(control) used. Total binding absence of compound used, 10uM Naloxone used for nonspecific binding. Each well contained membrane 15 ug/well protein and 2.48 nM Radioligand final conc. Incubated 1 hour in R/T; harvested on GF/B filter, dried O/N. Data are normalized to % Specific binding. MOR-CHO(PE) cell Kd:5.27±2.39 nM. Data are expressed as mean of a single experiment, performed in triplicate. Vehicle contained 0.1% DMSO and 0.1% BSA. (Radioligand:#23067 Lot:2548344 NET: 1121250UC). Table 1 below also summarizes overall MOR binding profile of cyclic oligopeptides of the invention compared to naloxone.
As to B1, the half-maximal inhibitory concentration (IC50) was greater than 2500 nM and the Ki is greater than 2500 nM.

On to B2, for which the IC50 was greater than 2500 nM and the inhibition constant Ki was greater than 2500 nM.

B3 yielded a concentration for half-maximal inhibition (IC50) greater than 2500 nM and a Ki greater than 2500 nM.

In turn, B4 yielded an IC50 greater than 2500 nM and a Ki greater than 2500 nM.

For the molecule B5, the IC50 is greater than 2500 nM and the inhibition constant Ki was greater than 2500 nM.

Consider B6, for which the half-inhibitory concentration (IC50) is greater than 2500 nM and the Ki was greater than 2500 nM.

In the case of B7, the IC50 is greater than 2500 nM and the inhibitory constant (Ki) was greater than 2500 nM.

As for B8, the IC50 is greater than 2500 nM and the inhibition constant (Ki) was greater than 2500 nM.

As for B9, the IC50 was greater than 2500 nM and the inhibition constant Ki was greater than 2500 nM.

B10: the half-maximal inhibitory concentration (IC50) is greater than 2500 nM and the Ki is greater than 2500 nM.

The molecule B11 came in with a half-maximal inhibitory concentration (IC50) greater than 2500 nM and a Ki greater than 2500 nM.

For B12, the IC50 is greater than 2500 nM and the inhibitory constant (Ki) is greater than 2500 nM.

By IC50 is commonly meant the concentration that inhibits the measured activity by half. As a reminder, the Ki is the equilibrium dissociation constant of an inhibitor or competing ligand from its target. Read a high Ki as a looser hold on the target.
